Laboratory results published in US20260167959A1, “APTAZYME-BASED REGULATABLE GENE EXPRESSION SYSTEMS” (REJUVENATE BIO INC, priority 2022, published 2026).
Substitutions are numbered along the chain they refer to.

B1: RA289 (nucleic acid)
DNA: GCGCGTCCTGGATTCGCGGAAACGCGTACATCCAGGAATACCAGCATCGTCTTGATGCCCTTGGAAGTCCGCTGACGAGTCCCAAATAGGACGAAACGCGC
modifications: expressed or natural sequence
B2: RA291 (nucleic acid)
DNA: GCTGTCACCGGAATACCAGCATCGTCTTGATGCCCTTGGAAGTCCGGTCTGATGAGTCCCATAAGGACGAAACAGC
modifications: expressed or natural sequence
B3: RA300 (nucleic acid)
DNA: GCGCGTCCTGGCGAGAATACCAGCATCGTCTTGATGCCCTTGGAAGTCTCGATTCGCGGAAACGCGTACATCCAGCTGACGAGTCCCAAATAGGACGAAACGCGC
modifications: expressed or natural sequence
B4: RA308 (nucleic acid)
DNA: GCGCGTCCTGGATTCGCGGAAACGCGTACATCCAGCAGTGATACCAGCATCGTCTTGATGCCCTTGGCAGCACTTGACGAGTCCCAAATAGGACGAAACGCGC
modifications: expressed or natural sequence
B5: RA311 (nucleic acid)
DNA: GCGCGTCCTGGATTCGCGGAAACGCGTCGAGAATACCAGCATCGTCTTGATGCCCTTGGAAGTCTCGACATCCAGCTGACGAGTCCCAAATAGGACGAAACGCGC
modifications: expressed or natural sequence
B6: RA290 (nucleic acid)
DNA: GCGCGTCCTGGATTCGCGGAAACGCGTACATCCAGCTGACGACCGGAATACCAGCATCGTCTTGATGCCCTTGGAAGTCCGGGTCCCAAATAGGACGAAACGCGC
modifications: expressed or natural sequence
B7: RA029 (nucleic acid)
DNA: GCGCGTCCTGGATTCGCGGAAACGGGAATACCAGCATCGTCTTGATGCCCTTGGAAGTCCCGTACATCCAGCTGACGAGTCCCAAATAGGACGAAACGCGC
modifications: expressed or natural sequence
B8: RA303 (nucleic acid)
DNA: GCGCCGGAATACCAGCATCGTCTTGATGCCCTTGGAAGTCCGGTCCTGGATTCGCGGAAACGCGTACATCCAGCTGACGAGTCCCAAATAGGACGAAACGCGC
modifications: expressed or natural sequence
B9: RA297 (nucleic acid)
DNA: GCGCGGGAATACCAGCATCGTCTTGATGCCCTTGGAAGTCCTCCTGGATTCGCGGAAACGCGTACATCCAGCTGACGAGTCCCAAATAGGACGAAACGCGC
modifications: expressed or natural sequence
B10: RA309 (nucleic acid)
DNA: B9 DNA with G6A, C41T
modifications: expressed or natural sequence
B11: RA306 (nucleic acid)
DNA: B9 DNA with G93A
modifications: expressed or natural sequence
B12: RA310 (nucleic acid)
DNA: GCGCGTCCTGGATTCGCGGAAACGCGTACATCCAGCTGACGAGTCCCAAATAGAATACCAGCATCGTCTTGATGCCCTTGGAAGTCTAGGACGAAACGCGC
modifications: expressed or natural sequence
B13: RA304 (nucleic acid)
DNA: GCGCGAGAATACCAGCATCGTCTTGATGCCCTTGGAAGTCTCGCGTCCTGGATTCGCGGAAACGCGTACATCCAGCTGACGAGTCCCAAATAGGACGAAACGCGC
modifications: expressed or natural sequence
B14: RA296 (nucleic acid)
DNA: GCGCGTCCTGGATTCGCGGAAACGCGTACATCCAGCTGACGAGTCCCAAATAGGAGAATACCAGCATCGTCTTGATGCCCTTGGAAGTCTACGAAACGCGC
modifications: expressed or natural sequence
B15: RA305 (nucleic acid)
DNA: GCGCGTCCTGGATTCGCGGAAACGCGTACATCAGTGATACCAGCATCGTCTTGATGCCCTTGGCAGCACTCAGCTGACGAGTCCCAAATAGGACGAAACGCGC
modifications: expressed or natural sequence
B16: RA312 (nucleic acid)
DNA: GCGCGTCCTGGATTCGCGGAAACGCGTACATCCAGCTGACGAGGAATACCAGCATCGTCTTGATGCCCTTGGAAGTCCGTCCCAAATAGGACGAAACGCGC
modifications: expressed or natural sequence
B17: RA028 (nucleic acid)
DNA: GCGCGTCCTGGATTCGCGGAAACGCGTACATCCAGCTGACGACGGAATACCAGCATCGTCTTGATGCCCTTGGAAGTCCGGTCCCAAATAGGACGAAACGCGC
modifications: expressed or natural sequence
B18: RA292 (nucleic acid)
DNA: GCGCGTCGGAATACCAGCATCGTCTTGATGCCCTTGGAAGTCCGCCTGGATTCGCGGAAACGCGTACATCCAGCTGACGAGTCCCAAATAGGACGAAACGCGC
modifications: expressed or natural sequence
B19: RA299 (nucleic acid)
DNA: B18 DNA with C7A, G9T, A10G, A38C, T41C, C42A, G44T
modifications: expressed or natural sequence
B20: RA030 (nucleic acid)
DNA: GCGCGTCCTGGATTCGCGGAAACGCGTACATCCAGCTGACGAGTCCCAAATAGGACGAAACGAGAATACCAGCATCGTCTTGATGCCCTTGGAAGTCTCGCGC
modifications: expressed or natural sequence
B21: RA293 (nucleic acid)
DNA: GCGGGAATACCAGCATCGTCTTGATGCCCTTGGAAGTCCCGTCCTGGATTCGCGGAAACGCGTACATCCAGCTGACGAGTCCCAAATAGGACGAAACGCGC
modifications: expressed or natural sequence
B22: RA295 (nucleic acid)
DNA: GCGCGTCCTGGATTCGCGGAAAGGAATACCAGCATCGTCTTGATGCCCTTGGAAGTCCCGCGTACATCCAGCTGACGAGTCCCAAATAGGACGAAACGCGC
modifications: expressed or natural sequence
B23: RA302 (nucleic acid)
DNA: GCGCGTCCTGGATTCGCGGAAACGCGTACATCCAGCTGACGAGAATACCAGCATCGTCTTGATGCCCTTGGAAGTCTAGTCCCAAATAGGACGAAACGCGC
modifications: expressed or natural sequence
B24: RA301 (nucleic acid)
DNA: GCGAGTGATACCAGCATCGTCTTGATGCCCTTGGCAGCACTCGTCCTGGATTCGCGGAAACGCGTACATCCAGCTGACGAGTCCCAAATAGGACGAAACGCGC
modifications: expressed or natural sequence
B25: RA294 (nucleic acid)
DNA: GCGCGTCCTGGATTCGCGGAAACGAGAATACCAGCATCGTCTTGATGCCCTTGGAAGTCTCGCGTACATCCAGCTGACGAGTCCCAAATAGGACGAAACGCGC
modifications: expressed or natural sequence
B26: RA298 (nucleic acid)
DNA: GCCGGAATACCAGCATCGTCTTGATGCCCTTGGAAGTCCGGCGTCCTGGATTCGCGGAAACGCGTACATCCAGCTGACGAGTCCCAAATAGGACGAAACGCGC
modifications: expressed or natural sequence
B27: RA307 (nucleic acid)
DNA: GCGCGTCCTGGATTCGCGGAAACGCGTACATCCAGCTGACGAGTGAGAATACCAGCATCGTCTTGATGCCCTTGGAAGTCTCCCCAAATAGGACGAAACGCGC
modifications: expressed or natural sequence

Test system: Renilla luciferase RNA
Assay: Barcoded aptazyme variant library screen: un-cleaved Renilla luciferase RNA by barcode read counts, HEK293-T cells
Assay type: cell-based
Settings: triplicate
From the text: Based on the findings from Example 1, an aptazyme variant library was generated from the T3H48 ribozyme with one of seven variant theophylline aptamers inserted sequentially after each nucleotide of the DNA sequence encoding the T3H48 ribozyme sequence. […] The seven variant theophylline aptamers vary in their communication channels, which are the ribonucleotides of the aptamer that attach to the ribozyme sequence (see, Table 2).
The library was barcoded with unique sequences of nine nucleotides flanked by forward and reverse primer amplification sequences.
The aptazyme library was then PCR amplified and cloned into the psiCHECK™-2 dual luciferase vector in the 3′ UTR of the Renilla luciferase gene. […] The next day, the cells were isolated followed by DNA and RNA extraction using standard methods. The purified RNA was then converted to cDNA and the barcoded portion of the aptazyme library was PCR amplified. Similarly, the DNA was PCR amplified and all the samples were sequenced. All experimental conditions (with theophylline and without theophylline) were performed in triplicate. The read count for each barcode was determined with a custom build code and the data was normalized to identify the un-cleaved fractions of the Renilla luciferase RNA from cells that were cultured in the presence or absence of theophylline for each aptazyme, which was used to obtain the fold-change between ON- and OFF-states (FIG. 2).

[1] = un-cleaved Renilla luciferase RNA, HEK293-T cells cultured with 1 mM theophylline (ON) over without theophylline (OFF), barcode read counts
[2] = un-cleaved Renilla luciferase RNA by barcode read counts, with 1 mM theophylline (ON) over without theophylline (OFF), HEK293-T cells

Molecule	Fold change in RNA expression between the ON state and the OFF state [1] [fold]	Fold change in RNA expression between the ON state and the OFF state [2]
B1	1.0	–
B2	1.0	–
B3	1.0	–
B4	–	1.0
B5	–	1.0
B6	1.0	–
B7	2.3	–
B8	–	1.0
B9	1.0	–
B10	–	1.0
B11	–	1.0
B12	–	1.0
B13	–	1.0
B14	1.0	–
B15	–	1.0
B16	–	1.0
B17	2.3	–
B18	1.0	–
B19	1.0	–
B20	2.3	–
B21	1.0	–
B22	1.0	–
B23	–	1.0
B24	1.0	–
B25	1.0	–
B26	1.0	–
B27	–	1.0
